Reference: US12509709B2, “Methods for making L-glufosinate” (BASF SE, priority 2016, dated 2025)

How the values were obtained:
[1] = test system: weeds; details: EP 0030424; cited from earlier work
[2] = Conversion of PPO to L-glufosinate with isopropylamine as amine donor; assay type: biochemical; details: 0.25 mg/mL TA, 25 mM PPO, 250 mM isopropylamine, pH 8.0, 25 to 30° C.
Method: Isopropylamine can be used as an amine donor for conversion of PPO to L-glufosinate with the use of an appropriate TA. PPO was converted to L-glufosinate in a reaction with the following components: • 0.25 mg/mL TA encoded by SEQ ID NO: 1 • 25 mM PPO • 0.2 mM pyridoxal phosphate • 250 mM isopropylamine (pHed to 8 w/H3PO4) • 100 mM Kphos buffer pH 8.0
The reaction was incubated at 25 to 30° C. for 30 hours with gentle shaking (250 rpm). At 0 hours, the amount of L-glufosinate as measured by HPLC was 0 mM, at 20 hours it was 14 mM, and at 30 hours it was 18 mM.

[3] = Conversion of PPO to L-glufosinate with lysine as amine donor; assay type: biochemical; details: over 20 hours; 0.4 mg/mL gabT, 25 mM PPO, 75 mM L-Lysine, pH 8.0, 30° C.
Method: Lysine can be used as an amine donor for conversion of PPO to L-glufosinate with the use of an appropriate TA. PPO was converted to L-glufosinate in a reaction with the following components: • 0.4 mg/mL gabT (purified as in Example 3) • 25 mM PPO (pHed to 8 w/NaOH) • 0.2 mM pyridoxal phosphate • 75 mM L-Lysine dihydrochloride (pHed to 8 w/NaOH) • 100 mM Kphos buffer pH 8.0
The reaction was incubated at 30° C. for 20 hours with shaking (250 rpm). L-glufosinate was formed at a rate of 0.4 mM/hr over the 20 hours.

Molecule: CP(=O)(O)CCC(=O)C(=O)O [PPO, 2-oxo-4-(hydroxy(methyl)phosphinoyl)butyric acid]
- herbicidal activity [1]: can contribute herbicidal activity

B1: TA encoded by SEQ ID NO: 1: transaminase with the amino acid sequence of SEQ ID NO: 1 (protein, listed as Sinorhizobium arboris)
chain: MNIAAQSWERREATSFFHTFTDLPSLKTDGPVIIDHGEGPYIIDTVGRRYFEGNSGLWNMTLGFSERRLSDAALKQYQEFPGYHTFFGRNSKPTVELAERMLKLAPAPMSRVFFTNSGSEANESIVKLLWMMWAAEGRPERRKLLTRKNAYHGATVMASALTGKDYVKAFGLPGPEIVTLDCPHAWRFALPGEGDDEFAARLAANLETRILQEGPETIAGMFAEPVMGAGGVIVPPATYFAKIQPVLQRYGIPLIADEVICGFGRTGSLWGTLAVGQQPDIIVASKSMSAGYFPMGAVMLSADIDKRATAASEVWEEFPHGFTTGGHPVGCAISLEAIRIITEEGVFENVKSVSETFQSGLRALADHPMIGEARGMGLMGALETVADKKTKQSFSGDLRIGERISKEARDRGFIIRPLGSSVVLAPPFISTHGQIEELLAVLKEVLDVVYGTVKGEVA
modifications: Sinorhizobium arboris sp. nov.
- amount of L-glufosinate formed (HPLC) ([2]; at 20 hours): 14 mM
- amount of L-glufosinate formed (HPLC) ([2]; at 30 hours): 18 mM

B2: gabT: gabT transaminase from Escherichia coli (UniProt P22256; SEQ ID NO: 3) (protein, listed as Escherichia coli)
chain: MNSNKELMQRRSQAIPRGVGQIHPIFADRAENCRVWDVEGREYLDFAGGIAVLNTGHLHPKVVAAVEAQLKKLSHTCFQVLAYEPYLELCEIMNQKVPGDFAKKTLLVTTGSEAVENAVKIARAATKRSGTIAFSGAYHGRTHYTLALTGKVNPYSAGMGLMPGHVYRALYPCPLHGISEDDAIASIHRIFKNDAAPEDIAAIVIEPVQGEGGFYASSPAFMQRLRALCDEHGIMLIADEVQSGAGRTGTLFAMEQMGVAPDLTTFAKSIAGGFPLAGVTGRAEVMDAVAPGGLGGTYAGNPIACVAALEVLKVFEQENLLQKANDLGQKLKDGLLAIAEKHPEIGDVRGLGAMIAIELFEDGDHNKPDAKLTAEIVARARDKGLILLSCGPYYNVLRILVPLTIEDAQIRQGLEIISQCFDEAKQ
- rate of L-glufosinate formation [3]: 0.4 mM/h
